Measured values as given in patent US20240360228A1 (BIOLEGEND, published 2024).

How the values were obtained:
[1] = target: T1, human chemokine (C-C motif) receptor 8 (CCR8) (human, UniProt P51685 1-355); assay: flow cytometry blocking, PBMC CCR8+ CD4+ cells; competitor PE-AB11 (its MFI is read)
T1 construct: On human peripheral blood lymphocytes / PBMC (native) or on human CCR8 GFP-transfected Ba/F3 cells; also called hCCR8; human CCR8
Description: (§1) For blocking studies, 100 μL of the cell suspension were incubated with 10 μg purified isotype control, AB1, AB2, AB3, AB4, AB5, AB8, AB9, AB10, AB11, AB12, AB13, AB14, AB15, and Commercial ABI antibodies, or isotype control, as blocking agents.
(§2) After incubation with the blocking agent, the cells were incubated with 0.25 μg of the indicated PE-conjugated antibody plus anti-human CD4 APC or anti-human CD3 for another 15 minutes in the dark and then washed 2 times with Cell Staining Buffer, and acquired in a FACSCanto II flow cytometer (BD Biosciences); the data was analyzed using FCS Express (De Novo Software); MFI correspond to the CCR8+ CD4+ lymphocytes or CCR8+ CD3+ lymphocytes.
(§3) Percentage original MFI was calculated by dividing the MFI of samples blocked with AB1, AB2, AB3, AB4, AB5, AB6, AB7, AB8, AB9, AB10, AB11, AB12, AB13, AB14, AB15, and Commercial ABI antibodies, by the MFI of samples blocked with the corresponding isotype control. This value was subtracted from 100 to get a blocking percentage. The formula is shown below: […]
T1 sequence (P51685 whole entry): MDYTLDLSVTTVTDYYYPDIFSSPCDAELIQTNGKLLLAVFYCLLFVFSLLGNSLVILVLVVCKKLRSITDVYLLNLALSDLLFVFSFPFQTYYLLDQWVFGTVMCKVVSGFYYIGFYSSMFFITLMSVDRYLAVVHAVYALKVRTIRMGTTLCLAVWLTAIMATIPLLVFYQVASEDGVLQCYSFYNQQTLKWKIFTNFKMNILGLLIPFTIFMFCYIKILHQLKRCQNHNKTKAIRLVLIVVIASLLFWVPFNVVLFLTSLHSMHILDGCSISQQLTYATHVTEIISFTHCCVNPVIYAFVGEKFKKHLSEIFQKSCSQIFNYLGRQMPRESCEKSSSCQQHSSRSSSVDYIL

[2] = target: T1, human chemokine (C-C motif) receptor 8 …; assay: flow cytometry blocking, PBMC CCR8+ CD4+ cells; competitor PE-AB13 (its MFI is read)
Description: as §1, §2, §3

[3] = target: T1, human chemokine (C-C motif) receptor 8 …; assay: flow cytometry blocking, PBMC CCR8+ CD4+ cells; competitor PE-AB5 (its MFI is read)
Description: as §1, §2, §3

[4] = target: T1, human chemokine (C-C motif) receptor 8 …; assay: flow cytometry blocking, PBMC CCR8+ CD4+ cells; competitor PE-AB1 (its MFI is read)
Description: as §1, §2, §3

[5] = target: T1, human chemokine (C-C motif) receptor 8 …; assay: flow cytometry blocking, PBMC CCR8+ CD4+ cells; competitor PE-AB6 (its MFI is read)
Description: as §1, §2, §3

[6] = target: T1, human chemokine (C-C motif) receptor 8 …; assay: flow cytometry blocking, PBMC CCR8+ CD4+ cells; competitor PE-ABII (its MFI is read)
Description: as §1, §2, §3

[7] = target: T1, human chemokine (C-C motif) receptor 8 …; assay: flow cytometry blocking, PBMC CCR8+ CD4+ cells; competitor PE-AB2 (its MFI is read)
Description: as §1, §2, §3

[8] = target: T1, human chemokine (C-C motif) receptor 8 …; assay: flow cytometry blocking, PBMC CCR8+ CD4+ cells; competitor PE-AB10 (its MFI is read)
Description: as §1, §2, §3

[9] = target: T1, human chemokine (C-C motif) receptor 8 …; assay: flow cytometry blocking, PBMC CCR8+ CD4+ cells; competitor PE-AB15 (its MFI is read)
Description: as §1, §2, §3

[10] = target: T1, human chemokine (C-C motif) receptor 8 …; assay: flow cytometry blocking, PBMC CCR8+ CD4+ cells; competitor PE-AB4 (its MFI is read)
Description: as §1, §2, §3

[11] = target: T1, human chemokine (C-C motif) receptor 8 …; assay: flow cytometry blocking, PBMC CCR8+ CD4+ cells; competitor PE-AB14 (its MFI is read)
Description: as §1, §2, §3

[12] = target: T1, human chemokine (C-C motif) receptor 8 …; assay: flow cytometry blocking, PBMC CCR8+ CD4+ cells; competitor PE-AB12 (its MFI is read)
Description: as §1, §2, §3

[13] = target: T1, human chemokine (C-C motif) receptor 8 …; assay: cell-based or functional assay
[14] = target: T1, human chemokine (C-C motif) receptor 8 …; assay: flow cytometry blocking, PBMC CCR8+ CD4+ cells; competitor PE-AB3 (its MFI is read)
Description: as §1, §2, §3

[15] = target: T2, human chemokine (C-C motif) receptor 8 (CCR8) (human, UniProt P51685 1-355); assay: flow cytometry blocking, human PBMC, CD3+ gate; competitor PE-AB13
T2 construct: also called hCCR8
Description: as §1, §2, §3
T2 sequence (P51685 whole entry): as above

[16] = target: T2, human chemokine (C-C motif) receptor 8 …; assay: flow cytometry blocking, human PBMC, CD3+ gate; % cells stained by competitor PE-AB15 after block
Description: as §1, §2

[17] = target: T2, human chemokine (C-C motif) receptor 8 …; assay: flow cytometry blocking, human PBMC, CD3+ gate; % cells stained by competitor PE-433H after block
Description: as §1, §2

[18] = target: T2, human chemokine (C-C motif) receptor 8 …; assay: flow cytometry blocking, human PBMC, CD3+ gate; % cells stained by competitor PE-L263G8 after block
Description: as §1, §2

[19] = target: T2, human chemokine (C-C motif) receptor 8 …; assay: flow cytometry blocking, human PBMC, CD3+ gate; competitor PE-L263G8
[20] = target: T2, human chemokine (C-C motif) receptor 8 …; assay: flow cytometry blocking, human PBMC, CD3+ gate; competitor PE-AB11
Description: as §1, §2, §3

[21] = target: T2, human chemokine (C-C motif) receptor 8 …; assay: flow cytometry blocking, human PBMC, CD3+ gate; % cells stained by competitor PE-AB6 after block
Description: as §1, §2

[22] = target: T2, human chemokine (C-C motif) receptor 8 …; assay: flow cytometry blocking, human PBMC, CD3+ gate; % cells stained by competitor PE-AB11 after block
Description: as §1, §2

[23] = target: T2, human chemokine (C-C motif) receptor 8 …; assay: flow cytometry blocking, human PBMC, CD3+ gate; competitor PE-AB6
Description: as §1, §2, §3

[24] = target: T2, human chemokine (C-C motif) receptor 8 …; assay: flow cytometry blocking, human PBMC, CD3+ gate; competitor PE-AB12
Description: as §1, §2, §3

[25] = target: T2, human chemokine (C-C motif) receptor 8 …; assay: flow cytometry blocking, human PBMC, CD3+ gate; competitor PE-433H
[26] = target: T2, human chemokine (C-C motif) receptor 8 …; assay: flow cytometry blocking, human PBMC, CD3+ gate; competitor PE-AB10
Description: as §1, §2, §3

[27] = target: T2, human chemokine (C-C motif) receptor 8 …; assay: flow cytometry blocking, human PBMC, CD3+ gate; competitor PE-AB8
Description: as §1, §2, §3

[28] = target: T2, human chemokine (C-C motif) receptor 8 …; assay: flow cytometry blocking, human PBMC, CD3+ gate; % cells stained by competitor PE-AB7 after block
Description: as §1, §2

[29] = target: T2, human chemokine (C-C motif) receptor 8 …; assay: flow cytometry blocking, human PBMC, CD3+ gate; % cells stained by competitor PE-AB10 after block
Description: as §1, §2

[30] = target: T2, human chemokine (C-C motif) receptor 8 …; assay: flow cytometry blocking, human PBMC, CD3+ gate; competitor PE-AB5
Description: as §1, §2, §3

[31] = target: T2, human chemokine (C-C motif) receptor 8 …; assay: flow cytometry blocking, human PBMC, CD3+ gate; competitor PE-AB15
Description: as §1, §2, §3

[32] = target: T2, human chemokine (C-C motif) receptor 8 …; assay: flow cytometry blocking, human PBMC, CD3+ gate; competitor PE-AB7
Description: as §1, §2, §3

[33] = target: T2, human chemokine (C-C motif) receptor 8 …; assay: flow cytometry blocking, human PBMC, CD3+ gate; % cells stained by competitor PE-AB8 after block
Description: as §1, §2

[34] = target: T2, human chemokine (C-C motif) receptor 8 …; assay: flow cytometry blocking, human PBMC, CD3+ gate; % cells stained by competitor PE-AB12 after block
Description: as §1, §2

[35] = target: T2, human chemokine (C-C motif) receptor 8 …; assay: flow cytometry blocking, human PBMC, CD3+ gate; competitor PE-AB14
Description: as §1, §2, §3

[36] = target: T2, human chemokine (C-C motif) receptor 8 …; assay: flow cytometry blocking, human PBMC, CD3+ gate; % cells stained by competitor PE-AB13 after block
Description: as §1, §2

[37] = target: T2, human chemokine (C-C motif) receptor 8 …; assay: flow cytometry blocking, human PBMC, CD3+ gate; % cells stained by competitor PE-AB14 after block
Description: as §1, §2

[38] = target: T2, human chemokine (C-C motif) receptor 8 …; assay: flow cytometry blocking, human PBMC, CD3+ gate; % cells stained by competitor PE-AB5 after block
Description: as §1, §2

B1: AB15 (antibody, V domains shown)
VH: EVQLVESGGGLVQPKGSLKLSCAASGFTFNTYAMNWVRQAPGKGLEWVARIRSKSNNYATYYVDSVKDRFTISRDDSQSMLYLQINNLKTEDTAMYYCVRGRELGPYSAMDYWGQGTSVTVSS
VL: DIVMTQAAPSVPVTPGESVSISCRSSKSLLHSNGNTYLYWFLQRPGQSPQLLIYRMSNLASGVPDRFSGSGSGTAFTLRISRVEAEDVGLYYCMQHLEYPFTFGGGTKLEIK
notes: Hybridoma monoclonal; also called antibody 15; clone 15
% Blocking [1]: 20.9% | MFI [1]: 713 | % Blocking [2]: -3.67% | MFI [2]: 971 | % Blocking [3]: -29.4% | MFI [3]: 970 | % Blocking [4]: -51.8% | MFI [4]: 995 | % Blocking [5]: -35.7% | MFI [5]: 1060 | % Blocking [6]: -0.05% | MFI [6]: 1110 | % Blocking [7]: -60.8% | MFI [7]: 1080 | % Blocking [8]: 1.55% | MFI [8]: 992 | % Blocking [9]: 19.4% | MFI [9]: 639 | % Blocking [10]: -45.6% | MFI [10]: 994 | % Blocking [11]: 38.4% | MFI [11]: 546 | % Blocking [12]: 34.1% | MFI [12]: 643 | % hCCR8-Ba/F3 - THP-1 complexes [13]: 1.07% | % Blocking [14]: -61.4% | MFI [14]: 1120

B2: anti-CCR8 monoclonal antibody AB5 (antibody, V domains shown)
VH: QVQLKESGPGLVQPSQTLSLTCTVSGFSLTSYHVSWVRQPPGKGLEWMGVIWTGGSTTYNSLLKSRLSISRDISKSQVFLKMNSLQTEDTATYYCARGGTVVKGGFAYWGQGTLVTVSS
VL: DIQMTQSPASLSASLEEIVTITCQASQDIGNRLSWYQQKPGKSPQLLIYGATSLADGVPSRFSGSRSGTQYSLKISRLQVEDIGIYYCLQAYSTPLTFGSGTKLEIK
notes: Hybridoma monoclonal; also called antibody 5; clone 5
% Blocking [15]: -5.41% | % Positive cells [16]: 6.75% | % Positive cells [17]: 7.14% | % Positive cells [18]: 7.17% | % Blocking [19]: -22.1% | % Blocking [20]: -1.71% | % Positive cells [21]: 0.32% | % Positive cells [22]: 7.14% | % Blocking [23]: 96.1% | % Blocking [24]: -0.13% | % Blocking [25]: -0.99% | % Blocking [26]: -23.1% | % Blocking [27]: 0.12% | % Positive cells [28]: 9.75% | % Positive cells [29]: 7.42% | % Blocking [30]: 84.9% | % Blocking [31]: -2.58% | % Blocking [32]: -7.14% | % Positive cells [33]: 8.45% | % Positive cells [34]: 7.54% | % Blocking [35]: 9.26% | % Positive cells [36]: 7.01% | % Positive cells [37]: 6.47% | % Positive cells [38]: 1.25%
